Experimental data: the supplement of paper PMC10567573

B1: ACSBG2 (parent)
chain: TPMTIPEFFRESVNRFGTYPALAS

Variants of: B1
Assay: protein stability index of a GFP-peptide fusion (GPS, HEK-293T) (PSI 1-6); higher = more stable
Details: c terminus: a fixed tail appended
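Note: lentivirally expressed fusions sorted by FACS into six bins by GFP to DsRed ratio, PSI derived from sequencing read proportions per bin multiplied by bin number.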

Point of comparison: TPMTIPEFFRESVNRFGTYFALAS [P20F], protein stability index 2.49. Against it:
- TPMTIPEFFRESVNRFITYPALAS [G17I] — lower, 1.97
- TPMTIPEFFRESVNRFRTYPALAS [G17R] — lower, 2.42
- TPMTIPEFFRESVNRFHTYPALAS [G17H] — lower, 2.28
- TPMTIPEFFRESVNRFYTYPALAS [G17Y] — lower, 2.04
- TPMTIPEFFRESVNRFVTYPALAS [G17V] — lower, 2.1
- TPMTIPEFFRESVNRFSTYPALAS [G17S] — higher, 2.62
- TPMTIPEFFRESVNRFQTYPALAS [G17Q] — lower, 1.86
- TPMTIPEFFRESVNRFETYPALAS [G17E] — lower, 2.35
- TPMTIPEFFRESVNRFDTYPALAS [G17D] — higher, 2.76
- TPMTIPEFFRESVNRFPTYPALAS [G17P] — lower, 2.22
- TPMTIPEFFRESVNRFCTYPALAS [G17C] — lower, 1.43
- TPMTIPEFFRESVNRFFTYPALAS [G17F] — lower, 1.8
- TPMTIPEFFRESVNRFNTYPALAS [G17N] — lower, 2.34
- TPMTIPEFFRESVNRFWTYPALAS [G17W] — lower, 2.12
- TPMTIPEFFRESVNRFMTYPALAS [G17M] — lower, 2.17
- TPMTIPEFFRESVNRFTTYPALAS [G17T] — lower, 1.91
- TPMTIPEFFRESVNRFKTYPALAS [G17K] — lower, 2.27
- TPMTIPEFFRESVNRFLTYPALAS [G17L] — lower, 1.95
- TPMTIPEFFRESVNRFATYPALAS [G17A] — lower, 1.78
- TPMTIPEFFRESVNRFGKYPALAS [T18K] — higher, 2.77
- TPMTIPEFFRESVNRFGRYPALAS [T18R] — lower, 2.17
- TPMTIPEFFRESVNRFGGYPALAS [T18G] — lower, 2.17
- TPMTIPEFFRESVNRFGAYPALAS [T18A] — lower, 1.89
- TPMTIPEFFRESVNRFGEYPALAS [T18E] — higher, 3.05
- TPMTIPEFFRESVNRFGQYPALAS [T18Q] — lower, 2.02
- TPMTIPEFFRESVNRFGMYPALAS [T18M] — lower, 1.74
- TPMTIPEFFRESVNRFGYYPALAS [T18Y] — lower, 2.09
- TPMTIPEFFRESVNRFGDYPALAS [T18D] — higher, 2.9
- TPMTIPEFFRESVNRFGHYPALAS [T18H] — lower, 2.1
- TPMTIPEFFRESVNRFGNYPALAS [T18N] — lower, 2.35
- TPMTIPEFFRESVNRFGWYPALAS [T18W] — lower, 1.49
- TPMTIPEFFRESVNRFGSYPALAS [T18S] — lower, 2.06
- TPMTIPEFFRESVNRFGCYPALAS [T18C] — lower, 2.35
- TPMTIPEFFRESVNRFGLYPALAS [T18L] — lower, 2.31
- TPMTIPEFFRESVNRFGIYPALAS [T18I] — lower, 2.02
- TPMTIPEFFRESVNRFGFYPALAS [T18F] — lower, 1.9
- TPMTIPEFFRESVNRFGPYPALAS [T18P] — lower, 2.08
- TPMTIPEFFRESVNRFGVYPALAS [T18V] — lower, 2.29
- TPMTIPEFFWESVNRFGTYPALAS [R10W] — lower, 1.97
- TPMTIPEFFYESVNRFGTYPALAS [R10Y] — lower, 1.86
- TPMTIPEFFRESVFRFGTYPALAS [N14F] — lower, 1.66
- TPMTIPEFFRESVCRFGTYPALAS [N14C] — lower, 1.83
- TPMTIPEFFRESVPRFGTYPALAS [N14P] — higher, 2.66
- TPMTIPEFFRESVDRFGTYPALAS [N14D] — higher, 2.65
- TPMTIPEFFRESVARFGTYPALAS [N14A] — higher, 2.51
- TPMTIPEFFRESVQRFGTYPALAS [N14Q] — lower, 2.24
- TPMTIPEFFRESVVRFGTYPALAS [N14V] — lower, 1.93
- TPMTIPEFFRESVHRFGTYPALAS [N14H] — lower, 2.05
- TPMTIPEFFRESVSRFGTYPALAS [N14S] — higher, 2.51
- TPMTIPEFFRESVYRFGTYPALAS [N14Y] — lower, 1.88
- TPMTIPEFFRESVERFGTYPALAS [N14E] — higher, 2.81
- TPMTIPEFFRESVGRFGTYPALAS [N14G] — lower, 2.18
- TPMTIPEFFRESVTRFGTYPALAS [N14T] — lower, 2.23
- TPMTIPEFFRESVRRFGTYPALAS [N14R] — lower, 2.01
- TPMTIPEFFRESVWRFGTYPALAS [N14W] — lower, 1.74
- TPMTIPEFFRESVMRFGTYPALAS [N14M] — lower, 2.39
- TPMTIPEFFRESVKRFGTYPALAS [N14K] — higher, 2.54
- TPMTIPEFFRESVIRFGTYPALAS [N14I] — lower, 1.83
- TPMTIPEFFRESVLRFGTYPALAS [N14L] — lower, 1.62
- TPMTIPEFFRESVNRFGTYQALAS [P20Q] — lower, 1.71
- TPMTIPEFFRESVNRFGTYMALAS [P20M] — higher, 2.87
- TPMTIPEFFRESVNRFGTYRALAS [P20R] — lower, 2.18
- TPMTIPEFFRESVNRFGTYNALAS [P20N] — lower, 2.11
- TPMTIPEFFRESVNRFGTYKALAS [P20K] — lower, 2.39
- TPMTIPEFFRESVNRFGTYLALAS [P20L] — higher, 2.63
- TPMTIPEFFRESVNRFGTYGALAS [P20G] — lower, 2.3
- TPMTIPEFFRESVNRFGTYAALAS [P20A] — lower, 1.89
- TPMTIPEFFRESVNRFGTYDALAS [P20D] — higher, 2.67
- TPMTIPEFFRESVNRFGTYHALAS [P20H] — lower, 1.92
- TPMTIPEFFRESVNRFGTYCALAS [P20C] — lower, 1.97
- TPMTIPEFFRESVNRFGTYIALAS [P20I] — lower, 2.34
- TPMTIPEFFRESVNRFGTYEALAS [P20E] — lower, 2.4
- TPMTIPEFFRESVNRFGTYSALAS [P20S] — lower, 2.04
- TPMTIPEFFRESVNRFGTQPALAS [Y19Q] — higher, 2.91
- TPMTIPEFFRESVNRFGTVPALAS [Y19V] — higher, 2.71
- TPMTIPEFFRESVNRFGTTPALAS [Y19T] — higher, 2.76
- TPMTIPEFFRESVNRFGTAPALAS [Y19A] — higher, 2.82
- TPMTIPEFFRESVNRFGTMPALAS [Y19M] — higher, 2.77
- TPMTIPEFFRESVNRFGTDPALAS [Y19D] — higher, 3.44
- TPMTIPEFFRESVNRFGTPPALAS [Y19P] — higher, 2.87
- TPMTIPEFFRESVNRFGTLPALAS [Y19L] — lower, 2.38
- TPMTIPEFFRESVNRFGTCPALAS [Y19C] — lower, 2.19
- TPMTIPEFFRESVNRFGTFPALAS [Y19F] — higher, 2.52
- TPMTIPEFFRESVNRFGTNPALAS [Y19N] — higher, 2.84
- TPMTIPEFFRESVNRFGTIPALAS [Y19I] — higher, 2.78
- TPMTIPEFFRESVNRFGTHPALAS [Y19H] — higher, 2.77
- TPMTIPEFFRESVNRFGTEPALAS [Y19E] — higher, 3.37
- TPMTIPEFFRESVNRFGTRPALAS [Y19R] — higher, 3.17
- TPMTIPEFFRESVNRFGTGPALAS [Y19G] — higher, 2.73
- TPMTIPEFFRESVNRFGTSPALAS [Y19S] — higher, 2.54
- TPMTIPEFFRESVNRFGTKPALAS [Y19K] — higher, 2.8
- TPMTIPEFFRESVNRFGTWPALAS [Y19W] — lower, 2.38
- TPMTIPEFFRESVNWFGTYPALAS [R15W] — lower, 1.52
